Assay results published in the supplement of paper PMC11908140.

B1: library; numbered along this chain (parent)
chain: MRKPRAAVGSGHRKQAASQEGRQKHAKNNSQAKPSACDGLARQPEEVVLQASVSSYHLFRDVAEVTAFRGSLLSWYDQEKRDLPWRRRAEDEMDLDRRAYAVWVSEVMLQQTQVATVINYYTGWMQKWPTLQDLASASLEEVNQLWAGLGYYSRGRRLQEGARKVVEELGGHMPRTAETLQQLLPGVGRYTAGAIASIAFGQATGVVDGNVARVLCRVRAIGADPSSTLVSQQLWGLAQQLVDPARPGDFNQAAMELGATVCTPQRPLCSQCPVESLCRARQRVEQEQLLASGSLSGSPDVEECAPNTGQCHLCLPPSEPWDQTLGVVNFPRKASRKPPREESSATCVLEQPGALGAQILLVQRPNSGLLAGLWEFPSVTWEPSEQLQRKALLQELQRWAGPLPATHLRHLGEVVHTFSHIKLTYQVYGLALEGQTPVTTVPPGARWLTQEEFHTAAVSTAMKKVFRVYQGQQPGTCMGSKRSQVSSPCSRKKPRMGQQVLDNFFRSHISTDAHSLNSAAQ

Variants of: B1
Assay: 8OG:A repair function score (normalized; synonymous = 0, nonsense = -1) (normalized log-likelihood score); higher = more repair activity (WT-like)
Conditions: with 8OG:A DNA repair reporter (GFP) in HEK-293 MUTYH KO cells
Summary of the method: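 Per-tile Rosace fitness scores were converted to a normalized repair function score anchored on synonymous and nonsense distributions. That scale puts synonymous medians at 0 and nonsense medians at -1. Variants with starting counts under 300 counts per million were discarded. Input came from sorting viable mCherry+ MUTYH knockout HEK-293 cells, carrying lentiviral MUTYH cDNA NNN codon-scan libraries in 10 pg/ml doxycycline and an 8OG:A GFP repair reporter, into GFP+ and GFP− bins at 72 h, three replicates per tile, followed by tile amplicon sequencing.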
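Also: cells sorted at 72 h after reporter transfection.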

Variant | 8OG:A repair function score
E140I | -0.242
L95M | 0.0014
Q388V | 0.063
T455C | 0.318
L403D | -0.686
L403W | -0.318
Q358H | -0.152
C347G | -0.229
C347V | -0.045
A101Y | -0.0479
A101C | -0.00146
T436Y | 0.0674
Y151G | -1.03
Y151E | -1.21
V47E | -0.116
V47G | -0.0668
E287Y | -0.00218
K390F | -0.0738
V107T | -0.0133
K492F | -0.0038
K492E | 0.022
L373A | -0.596
L373R | -0.666
Q426Y | 0.0116

Variant | 8OG:A repair function score
Q426S | -0.0807
C489I | -0.0718
A147P | -0.734
T424P | -0.685
T424S | -0.192
P338H | -0.0311
V117I | -0.166
E413C | -0.201
G123A | 0.0469
G123I | 0.0985
Q239P | -0.953
Q286W | -7.92e-05
A253K | -1.02
R340E | -0.133
A51Q | 0.214
A51G | -0.0113
A51W | 0.101
S227C | -0.0498
Y152A | -0.881
Y152D | -1.08
Y152W | -0.762
V441Y | -0.0452
L134I | -0.101
L134K | -0.914

Variant | 8OG:A repair function score
V102K | -1.71
L58D | -0.00786
E382Q | 0.185
Q50E | 0.0122
A513H | -0.0076
R2A | -0.0711
M93R | 0.00556
Q472P | 0.0113
W146L | -0.263
W146E | -1.03
T460A | -0.00746
S335Y | -0.0347
V327T | -0.119
V327M | -0.375
E303K | -0.0605
E303W | -0.175
L268A | -0.000124
K464Y | -0.503
T440F | 0.0139
A135Q | -0.686
V165E | -1.11
A259V | -0.765
A259Y | -0.675
A259N | -0.257

Variant | 8OG:A repair function score
G205A | -0.145
G205Q | -0.764
R283H | -0.102
G356S | -0.118
E178G | -0.126
E178T | 0.0829
W103L | -0.377
M478I | -0.0519
Q132G | -0.076
Q132K | -0.364
L237T | -0.184
A203I | 0.0319
T476F | 0.0194
V274L | -0.0284
V274M | -0.0354
I221K | -0.986
I221W | -0.622
I221H | -0.866
Q435T | 0.028
Q43M | 0.0733
Q43C | 0.138
F250S | -0.385
A371L | -0.5
G497P | -0.0806

Variant | 8OG:A repair function score
A305I | 0.00729
L423I | -0.059
L423A | 0.0643
R409V | 0.0575
E395Q | -0.276
A67W | -0.0846
A67H | -0.0348
A67Y | 0.00691
F59C | -0.367
P383L | -0.0053
H407D | 0.0493
P352I | -0.461
N307T | -0.07
V362M | -0.403
V362E | -0.932
V362T | -0.028
D61N | -0.0108
D61E | -0.0493
S344Q | 0.019
S344P | -0.301
W399P | -0.724
P437E | 0.0852
P437I | -0.277
S226Y | -0.198

Variant | 8OG:A repair function score
L387R | -0.0979
L229F | -0.0261
S367A | -0.145
S367C | -0.0437
S367L | -0.139
T130M | -0.278
D322H | -0.147
D322C | -0.00563
A520M | 0.0283
A89G | -0.0247
Y190S | -0.22
L109W | -0.957
H420V | -0.371
T179S | 0.00681
R398Q | -0.525
R398P | -0.556
R69E | -3.19
G248N | -0.871
G248L | -1.01
R97L | -0.0375
E256H | -1.34
E256C | -0.939
T346L | -0.0228
V242L | -0.288

Variant | 8OG:A repair function score
G412I | -0.788
G412V | -0.894
L184S | -0.911
K463H | -0.12
E302D | -0.367
P365F | -0.154
H312Y | -0.0454
E275K | 0.00478
E275I | -0.0114
C272Q | -1.09
L360G | -0.95
I198N | -0.562
Q202L | -0.163
Y469R | -0.195
Y469I | -0.259
A445F | -0.672
P273R | -0.526
A457R | -0.672
C477G | -0.00235
C477W | 0.00839
R213N | -0.963
D243V | -0.767
E92I | -0.0645
